Source: the supplement of paper PMC12338614
± gives the uncertainty stated by the source.

B1: library; numbered along this chain (parent)
chain: MEVVDPQQLGMFTEGELMSVGMDTFIHRIDSTEVIYQPRRKRAKLIGKYLMGDLLGEGSYGKVKEVLDSETLCRRAVKILKKKKLRRIPNGEANVKKEIQLLRRLRHKNVIQLVDVLYNEEKQKMYMVMEYCVCGMQEMLDSVPEKRFPVCQAHGYFCQLIDGLEYLHSQGIVHKDIKPGNLLLTTGGTLKISDLGVAEALHPFAADDTCRTSQGSPAFQPPEIANGLDTFSGFKVDIWSAGVTLYNITTGLYPFEGDNIYKLFENIGKGSYAIPGDCGPPLSDLLKGMLEYEPAKRFSIRQIRQHSWFRKKHPPAEAPVPIPPSPDTKDRWRSMTVVPYLEDLHGADEDEDLFDIEDDIIYTQDFTVPGQVPEEEASHNGQRRGLPKAVCMNGTEAAQLSTKSRAEGRAPNPARKACSASSKIRRLSACKQQ

Variants of: B1
Assay: STK11 functional score (HeLa growth suppression), rescaled enrichment; synonymous median = 1, nonsense median = 0 (normalised score)
Settings: with HeLa; variant type: missense
Summary of the method: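 HeLa cells carrying an AAVS1 landing pad received codon-optimised STK11 libraries made by codon randomisation (POPCode), integrated by Bxb1, with three regions each transfected three times. Integrants that were BFP-negative and mCherry-positive were sorted by FACS 4–5 days after electroporation and then grown for about two weeks. Tiled amplicons from gDNA were sequenced on NextSeq at ~2 million reads per tile. The functional score is a wild-type-corrected log ratio of post- to pre-selection counts, rescaled to the synonymous and nonsense medians, merged across codons and replicate transfections, and given a bootstrapped error.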

Variant | STK11 functional score
MEVVDPQQLGMFTEGELMSVGMDTFIHRIDSTEVIYQPRRKRAKLIGKYLMGDLLGEGSYGKVKEVLDSETLCRRAVKILKKKKLRRIPNGEANVKKEIQLLRRLRHKNVIQLVDVLYNEEKQKMYMVMEYCVCGMQEMLDSCPEKRFPVCQAHGYFCQLIDGLEYLHSQGIVHKDIKPGNLLLTTGGTLKISDLGVAEALHPFAADDTCRTSQGSPAFQPPEIANGLDTFSGFKVDIWSAGVTLYNITTGLYPFEGDNIYKLFENIGKGSYAIPGDCGPPLSDLLKGMLEYEPAKRFSIRQIRQHSWFRKKHPPAEAPVPIPPSPDTKDRWRSMTVVPYLEDLHGADEDEDLFDIEDDIIYTQDFTVPGQVPEEEASHNGQRRGLPKAVCMNGTEAAQLSTKSRAEGRAPNPARKACSASSKIRRLSACKQQ [V143C] | 1.26 ± 0.22
MEVVDPQQLGMFTEGELMSVGMDTFIHRIDSTEVIYQPRRKRAKLIGKYLMGDLLGEGSYGKVKEVLDSETLCRRAVKILKKKKLRRIPNGEANVKKEIQLLRRLRHKNVIQLVDVLYNEEKQKMYMVMEYCVCGMQEMLDVVPEKRFPVCQAHGYFCQLIDGLEYLHSQGIVHKDIKPGNLLLTTGGTLKISDLGVAEALHPFAADDTCRTSQGSPAFQPPEIANGLDTFSGFKVDIWSAGVTLYNITTGLYPFEGDNIYKLFENIGKGSYAIPGDCGPPLSDLLKGMLEYEPAKRFSIRQIRQHSWFRKKHPPAEAPVPIPPSPDTKDRWRSMTVVPYLEDLHGADEDEDLFDIEDDIIYTQDFTVPGQVPEEEASHNGQRRGLPKAVCMNGTEAAQLSTKSRAEGRAPNPARKACSASSKIRRLSACKQQ [S142V] | 1.51 ± 0.23
MEVVDPQQLGMFTEGELMSVGMDTFIHRIDSTEVIYQPRRKRAKLIGKYLMGDLLGEGSYGKVKEVLDSETLCRRAVKILKKKKLRRIPNGEANVKKEIQLLRRLRHKNVIQLVDVLYNEEKQKMYMVMEYCVCGMQEMLDQVPEKRFPVCQAHGYFCQLIDGLEYLHSQGIVHKDIKPGNLLLTTGGTLKISDLGVAEALHPFAADDTCRTSQGSPAFQPPEIANGLDTFSGFKVDIWSAGVTLYNITTGLYPFEGDNIYKLFENIGKGSYAIPGDCGPPLSDLLKGMLEYEPAKRFSIRQIRQHSWFRKKHPPAEAPVPIPPSPDTKDRWRSMTVVPYLEDLHGADEDEDLFDIEDDIIYTQDFTVPGQVPEEEASHNGQRRGLPKAVCMNGTEAAQLSTKSRAEGRAPNPARKACSASSKIRRLSACKQQ [S142Q] | 1.69 ± 0.26
MEVVDPQQLGMFTEGELMSVGMDTFIHRIDSTEVIYQPRRKRAKLIGKYLMGDLLGEGSYGKVKEVLDSETLCRRAVKILKKKKLRRIPNGEANVKKEIQLLRRLRHKNVIQLVDVLYNEEKQKMYMVMEYCVCGMQEMLDTVPEKRFPVCQAHGYFCQLIDGLEYLHSQGIVHKDIKPGNLLLTTGGTLKISDLGVAEALHPFAADDTCRTSQGSPAFQPPEIANGLDTFSGFKVDIWSAGVTLYNITTGLYPFEGDNIYKLFENIGKGSYAIPGDCGPPLSDLLKGMLEYEPAKRFSIRQIRQHSWFRKKHPPAEAPVPIPPSPDTKDRWRSMTVVPYLEDLHGADEDEDLFDIEDDIIYTQDFTVPGQVPEEEASHNGQRRGLPKAVCMNGTEAAQLSTKSRAEGRAPNPARKACSASSKIRRLSACKQQ [S142T] | 1.47 ± 0.18
MEVVDPQQLGMFTEGELMSVGMDTFIHRIDSTEVIYQPRRKRAKLIGKYLMGDLLGEGSYGKVKEVLDSETLCRRAVKILKKKKLRRIPNGEANVKKEIQLLRRLRHKNVIQLVDVLYNEEKQKMYMVMEYCVCGMQEMLDWVPEKRFPVCQAHGYFCQLIDGLEYLHSQGIVHKDIKPGNLLLTTGGTLKISDLGVAEALHPFAADDTCRTSQGSPAFQPPEIANGLDTFSGFKVDIWSAGVTLYNITTGLYPFEGDNIYKLFENIGKGSYAIPGDCGPPLSDLLKGMLEYEPAKRFSIRQIRQHSWFRKKHPPAEAPVPIPPSPDTKDRWRSMTVVPYLEDLHGADEDEDLFDIEDDIIYTQDFTVPGQVPEEEASHNGQRRGLPKAVCMNGTEAAQLSTKSRAEGRAPNPARKACSASSKIRRLSACKQQ [S142W] | 0.385 ± 0.093
MEVVDPQQLGMFTEGELMSVGMDTFIHRIDSTEVIYQPRRKRAKLIGKYLMGDLLGEGSYGKVKEVLDSETLCRRAVKILKKKKLRRIPNGEANVKKEIQLLRRLRHKNVIQLVDVLYNEEKQKMYMVMEYCVCGMQEMLDYVPEKRFPVCQAHGYFCQLIDGLEYLHSQGIVHKDIKPGNLLLTTGGTLKISDLGVAEALHPFAADDTCRTSQGSPAFQPPEIANGLDTFSGFKVDIWSAGVTLYNITTGLYPFEGDNIYKLFENIGKGSYAIPGDCGPPLSDLLKGMLEYEPAKRFSIRQIRQHSWFRKKHPPAEAPVPIPPSPDTKDRWRSMTVVPYLEDLHGADEDEDLFDIEDDIIYTQDFTVPGQVPEEEASHNGQRRGLPKAVCMNGTEAAQLSTKSRAEGRAPNPARKACSASSKIRRLSACKQQ [S142Y] | 1.13 ± 0.24
MEVVDPQQLGMFTEGELMSVGMDTFIHRIDSTEVIYQPRRKRAKLIGKYLMGDLLGEGSYGKVKEVLDSETLCRRAVKILKKKKLRRIPNGEANVKKEIQLLRRLRHKNVIQLVDVLYNEEKQKMYMVMEYCVCGMQEMLDRVPEKRFPVCQAHGYFCQLIDGLEYLHSQGIVHKDIKPGNLLLTTGGTLKISDLGVAEALHPFAADDTCRTSQGSPAFQPPEIANGLDTFSGFKVDIWSAGVTLYNITTGLYPFEGDNIYKLFENIGKGSYAIPGDCGPPLSDLLKGMLEYEPAKRFSIRQIRQHSWFRKKHPPAEAPVPIPPSPDTKDRWRSMTVVPYLEDLHGADEDEDLFDIEDDIIYTQDFTVPGQVPEEEASHNGQRRGLPKAVCMNGTEAAQLSTKSRAEGRAPNPARKACSASSKIRRLSACKQQ [S142R] | 0.875 ± 0.4
